The source of these data is US20230125550A1 (ARCELLX, published 2023).

T1: recombinant human CD123-Fc (human, UniProt P26951 19-305)
T1 construct: not shown: Fc part of CD123-Fc
T1 sequence: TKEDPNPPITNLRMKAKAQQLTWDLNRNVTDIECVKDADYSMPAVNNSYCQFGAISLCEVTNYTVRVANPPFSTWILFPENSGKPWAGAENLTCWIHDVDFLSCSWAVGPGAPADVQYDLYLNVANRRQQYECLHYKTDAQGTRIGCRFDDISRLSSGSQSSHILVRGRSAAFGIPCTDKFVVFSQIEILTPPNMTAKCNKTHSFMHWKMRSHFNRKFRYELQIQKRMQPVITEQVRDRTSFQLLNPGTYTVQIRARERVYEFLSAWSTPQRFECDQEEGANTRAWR

B1: SEQ ID NO: 409 (designed binder)
chain: MGSWVEFHMRLDAIYERLDALGGSEAELAAFEKEIAAFESELQAYKGKGNPEVEWLRTAAANIRVELQAYRHN
notes: D domain, on phage
B2: SEQ ID NO: 403 (designed binder)
chain: MGSWSEFNMRLDAIYERLTALGGSEAELAAFEKEIAAFESELQAYKGKGNPEVEWLRHSAALIRLELQAYRHN
notes: D domain, on phage
B3: SEQ ID NO: 404 (designed binder)
chain: MGSWIEFNMRLDAIYERLVALGGSEAELAAFEKEIAAFESELQAYKGKGNPEVEWLRKVAANIRLELQAYRHN
notes: D domain, on phage
B4: SEQ ID NO: 324 (designed binder)
chain: MGSWYEFVIRLEAIEDRLWALGGSEAELAAFEKEIAAFESELQAYKGKGNPEVEVLRWYAADIRHELQAYRHN
notes: D domain, on phage
B5: SEQ ID NO: 326 (designed binder)
chain: MGSWTEFSIRLEAIYDRLVALGGSEAELAAFEKEIAAFESELQAYKGKGNPEVEVLRTYAAFIRHELQAYRHN
notes: D domain, on phage
B6: SEQ ID NO: 408 (designed binder)
chain: MGSWVEFYTRLDAIYGRLDALGGSEAELAAFEKEIAAFESELQAYKGKGNPEVEWLRQVAANIRMELQAYRHN
notes: D domain, on phage
B7: SEQ ID NO: 407 (designed binder)
chain: MGSWTEFYVRLDAIYERLDALGGSEAELAAFEKEIAAFESELQAYKGKGNPEVEWLRMVAANIRTELQAYRHN
notes: D domain, on phage
B8: SEQ ID NO: 405 (designed binder)
chain: MGSWYEFHHRLDAIYERLLALGGSEAELAAFEKEIAAFESELQAYKGKGNPEVEWLRSSAANIRKELQAYRHN
notes: D domain, on phage
B9: SEQ ID NO: 406 (designed binder)
chain: MGSWYEFAKRLDAIYERLVALGGSEAELAAFEKEIAAFESELQAYKGKGNPEVEWLRSSAANIREELQAYRHN
notes: D domain, on phage
B10: SEQ ID NO: 325 (designed binder)
chain: MGSWTEFSIRLEAIYDRLVALGGSEAELAAFEKEIAAFESELQAYKGKGNPEVEVLRTYAANIRHELQAYRHN
notes: D domain, on phage
B11: SEQ ID NO: 402 (designed binder)
chain: MGSWSEFNMRLDAIYERLTALGGSEAELAAFEKEIAAFESELQAYKGKGNPEVEWLRHSAARIRLELQAYRHN
notes: D domain, on phage
B12: SEQ ID NO: 323 (designed binder)
chain: MGSWTEFYYRLEAIEDRLWALGGSEAELAAFEKEIAAFESELQAYKGKGNPEVEFLRVEAANIRDMLQAYRHN
notes: D domain, on phage
B13: SEQ ID NO: 318 (designed binder)
chain: MGSWVEFWFRLEAIDSRLWALGGSEAELAAFEKEIAAFESELQAYKGKGNPEVEWLREEAAAIREDLQAYRHN
notes: D domain, on phage
B14: SEQ ID NO: 371 (designed binder)
chain: MGSWMEFVDRLDAIESRLWALGGSEAELAAFEKEIAAFESELQAYKGKGNPEVEWLRIEAAFIREELQAYRHN
notes: D domain, on phage
B15: SEQ ID NO: 372 (designed binder)
chain: MGSWDEFVDRLWAIEERLWALGGSEAELAAFEKEIAAFESELQAYKGKGNPEVEELRIQAAIIREALQAYRHN
notes: D domain, on phage
B16: SEQ ID NO: 383 (designed binder)
chain: MGSWFEFQDRLWAIDNRLWALGGSEAELAAFEKEIAAFESELQAYKGKGNPEVEELRDHAAMIRWELQAYRHN
notes: D domain, on phage
B17: SEQ ID NO: 320 (designed binder)
chain: MGSWSEFWQRLEAIEDRLWALGGSEAELAAFEKEIAAFESELQAYKGKGNPEVEWLRENAAMIRDELQAYRHN
notes: D domain, on phage
B18: SEQ ID NO: 370 (designed binder)
chain: MGSWYEFWDRLDALEDRLWALGGSEAELAAFEKEIAAFESELQAYKGKGNPEVEYLRDSAAFIREELQAYRHN
notes: D domain, on phage
B19: SEQ ID NO: 316 (designed binder)
chain: MGSWTEFHDRLEAIDDRLWALGGSEAELAAFEKEIAAFESELQAYKGKGNPEVEYLREEAAQIRWELQAYRHN
notes: D domain, on phage
B20: SEQ ID NO: 332 (designed binder)
chain: MGSWVEFHDRLEAIEDRLLALGGSEAELAAFEKEIAAFESELQAYKGKGNPEVEDLREYAAGIRWFLQAYRHN
notes: D domain, on phage
B21: SEQ ID NO: 397 (designed binder)
chain: MGSWMEFEERLWAIDSRLWALGGSEAELAAFEKEIAAFESELQAYKGKGNPEVEWLRSEAAWIRMELQAYRHN
notes: D domain, on phage
B22: SEQ ID NO: 363 (designed binder)
chain: MGSWVEFDMRLSAIWERLIALGGSEAELAAFEKEIAAFESELQAYKGKGNPEVEWLREDAAEIREFLQAYRHN
notes: D domain, on phage
B23: SEQ ID NO: 329 (designed binder)
chain: MGSWVEFHDRLEAIEDRLYALGGSEAELAAFEKEIAAFESELQAYKGKGNPEVEWLREDAAYIRSILQAYRHN
notes: D domain, on phage
B24: SEQ ID NO: 369 (designed binder)
chain: MGSWFEFDDRLWAIENRLWALGGSEAELAAFEKEIAAFESELQAYKGKGNPEVEVLRDNAAWIREILQAYRHN
notes: D domain, on phage
B25: SEQ ID NO: 368 (designed binder)
chain: MGSWYEFYERLDAIEERLWALGGSEAELAAFEKEIAAFESELQAYKGKGNPEVEVLRDWAAWIREDLQAYRHN
notes: D domain, on phage
B26: SEQ ID NO: 319 (designed binder)
chain: MGSWVEFWQRLEAIESRLWALGGSEAELAAFEKEIAAFESELQAYKGKGNPEVEFLREEAAEIRWELQAYRHN
notes: D domain, on phage
B27: SEQ ID NO: 331 (designed binder)
chain: MGSWVEFDQRLEAIYDRLYALGGSEAELAAFEKEIAAFESELQAYKGKGNPEVEWLREDAAQIRKWLQAYRHN
notes: D domain, on phage
B28: SEQ ID NO: 330 (designed binder)
chain: MGSWIEFYDRLEAIYDRLDALGGSEAELAAFEKEIAAFESELQAYKGKGNPEVEWLREDAAFIRSWLQAYRHN
notes: D domain, on phage
B29: SEQ ID NO: 382 (designed binder)
chain: MGSWYEFEDRLWAIDNRLWALGGSEAELAAFEKEIAAFESELQAYKGKGNPEVEELRVHAADIRDDLQAYRHN
notes: D domain, on phage
B30: SEQ ID NO: 328 (designed binder)
chain: MGSWVEFHERLEAIEDRLMALGGSEAELAAFEKEIAAFESELQAYKGKGNPEVEYLREDAAFIRQLLQAYRHN
notes: D domain, on phage
B31: SEQ ID NO: 367 (designed binder)
chain: MGSWVEFYSRLDAIEDRLWALGGSEAELAAFEKEIAAFESELQAYKGKGNPEVEWLRIAAASIREDLQAYRHN
notes: D domain, on phage
B32: SEQ ID NO: 317 (designed binder)
chain: MGSWAEFEDRLWAIEDRLWALGGSEAELAAFEKEIAAFESELQAYKGKGNPEVEYLREEAAAIRFELQAYRHN
notes: D domain, on phage
B33: SEQ ID NO: 321 (designed binder)
chain: MGSWSEFITRLEAIDDRLWALGGSEAELAAFEKEIAAFESELQAYKGKGNPEVEILREEAAEIRQHLQAYRHN
notes: D domain, on phage
B34: SEQ ID NO: 364 (designed binder)
chain: MGSWVEFDQRLDAIYERLYALGGSEAELAAFEKEIAAFESELQAYKGKGNPEVEWLRDEAAEIREHLQAYRHN
notes: D domain, on phage
B35: SEQ ID NO: 322 (designed binder)
chain: MGSWYEFETRLEAIYDRLWALGGSEAELAAFEKEIAAFESELQAYKGKGNPEVELLRVEAAEIREDLQAYRHN
notes: D domain, on phage
B36: SEQ ID NO: 379 (designed binder)
chain: MGSWFEFWDRLEAIWERLDALGGSEAELAAFEKEIAAFESELQAYKGKGNPEVEELRREAAIIREDLQAYRHN
notes: D domain, on phage
B37: SEQ ID NO: 381 (designed binder)
chain: MGSWFEFHDRLWAIDERLWALGGSEAELAAFEKEIAAFESELQAYKGKGNPEVEILREEAADIRLDLQAYRHN
notes: D domain, on phage
B38: SEQ ID NO: 380 (designed binder)
chain: MGSWFEFEDRLEAIYQRLDALGGSEAELAAFEKEIAAFESELQAYKGKGNPEVEWLRDEAAWIRSDLQAYRHN
notes: D domain, on phage

The target of this assay is T1, recombinant human CD123-Fc. The assay is described as follows: phage ELISA, captured CD123-Fc. How it is done:
Individual colonies containing phagemid from BCMA panning output were picked and phage were rescued in 96-well format using VCSM13 helper phage following standard protocols. To assay target binding by ELISA, 96-well plates were coated with 1.3 microg/ml goat anti-human IgG1-Fc antibody followed by incubation with 5 nM of recombinant human target (BCMA-Fc, CD123-Fc, AFP, or AFP123) or IgG1-Fc. 50 microl of rescued phage diluted 5× in ELISA blocking buffer was then added to each well. Binding was detected using an HRP-conjugated anti-M13 antibody and the ELISA ratio for each sequence is reported as the absorbance at 450 nm for target (i.e., BCMA-Fc, CD123-Fc, AFP, or AFP123) divided by that for IgG1-Fc averaged across all screened wells containing that clone.
As to B1, the ELISA_avg is 9.1 ratio A450 target/IgG1-Fc.

In the case of B2, the ELISA_avg is 11.4 ratio A450 target/IgG1-Fc.

On to B3, for which the ELISA_avg turned out to be 11.4 ratio A450 target/IgG1-Fc.

Turning to B4, the ELISA_avg was 6.4 ratio A450 target/IgG1-Fc.

As to B5, the ELISA_avg stood at 10.2 ratio A450 target/IgG1-Fc.

Turning to B6, the ELISA_avg amounted to 14.4 ratio A450 target/IgG1-Fc.

On to B7, for which the ELISA_avg is 16 ratio A450 target/IgG1-Fc.

In the case of B8, the ELISA_avg was determined as 11.9 ratio A450 target/IgG1-Fc.

As to B9, the ELISA_avg was found to be 15.3 ratio A450 target/IgG1-Fc.

In the case of B10, the ELISA_avg was 11.9 ratio A450 target/IgG1-Fc.

As for B11, the ELISA_avg worked out at 13.7 ratio A450 target/IgG1-Fc.

With B12, the ELISA_avg amounted to 7.5 ratio A450 target/IgG1-Fc.

Turning to B13, the ELISA_avg was 3.2 ratio A450 target/IgG1-Fc.

In the case of B14, the ELISA_avg stood at 5.8 ratio A450 target/IgG1-Fc.

For B15, the ELISA_avg was determined as 6 ratio A450 target/IgG1-Fc.

With B16, the ELISA_avg amounted to 3.2 ratio A450 target/IgG1-Fc.

Consider B17, for which the ELISA_avg was 4.7 ratio A450 target/IgG1-Fc.

Regarding B18, the ELISA_avg is 9.7 ratio A450 target/IgG1-Fc.

Consider B19, for which the ELISA_avg was 5.8 ratio A450 target/IgG1-Fc.

For the molecule B20, the ELISA_avg came out at 3.3 ratio A450 target/IgG1-Fc.

Consider B21, for which the ELISA_avg was 3.2 ratio A450 target/IgG1-Fc.

On to B22, for which the ELISA_avg was 3.3 ratio A450 target/IgG1-Fc.

Regarding B23, the ELISA_avg came to 4.6 ratio A450 target/IgG1-Fc.

B24: the ELISA_avg is 4.2 ratio A450 target/IgG1-Fc.

B25: the ELISA_avg was found to be 8.4 ratio A450 target/IgG1-Fc.

As to B26, the ELISA_avg is 7.7 ratio A450 target/IgG1-Fc.

Take B27: the ELISA_avg came out at 5.1 ratio A450 target/IgG1-Fc.

Take B28: the ELISA_avg was found to be 7.5 ratio A450 target/IgG1-Fc.

On to B29, for which the ELISA_avg amounted to 4.9 ratio A450 target/IgG1-Fc.

With B30, the ELISA_avg worked out at 3.7 ratio A450 target/IgG1-Fc.

Regarding B31, the ELISA_avg was 9.4 ratio A450 target/IgG1-Fc.

Take B32: the ELISA_avg came out at 6.2 ratio A450 target/IgG1-Fc.

In the case of B33, the ELISA_avg came to 3.3 ratio A450 target/IgG1-Fc.

For B34, the ELISA_avg is 10.5 ratio A450 target/IgG1-Fc.

With B35, the ELISA_avg is 3.2 ratio A450 target/IgG1-Fc.

On to B36, for which the ELISA_avg turned out to be 10.3 ratio A450 target/IgG1-Fc.

Regarding B37, the ELISA_avg amounted to 3.5 ratio A450 target/IgG1-Fc.

As for B38, the ELISA_avg turned out to be 5.5 ratio A450 target/IgG1-Fc.
